Values of other authors, collected in PMC4244080.

Target: insulin receptor (Homo sapiens) (UniProt P06213)
Experiment: radioligand binding

Sequence of insulin (P01308 90-110): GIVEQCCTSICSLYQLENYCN
Sequence of UniProt P06213 (P06213 763-1382): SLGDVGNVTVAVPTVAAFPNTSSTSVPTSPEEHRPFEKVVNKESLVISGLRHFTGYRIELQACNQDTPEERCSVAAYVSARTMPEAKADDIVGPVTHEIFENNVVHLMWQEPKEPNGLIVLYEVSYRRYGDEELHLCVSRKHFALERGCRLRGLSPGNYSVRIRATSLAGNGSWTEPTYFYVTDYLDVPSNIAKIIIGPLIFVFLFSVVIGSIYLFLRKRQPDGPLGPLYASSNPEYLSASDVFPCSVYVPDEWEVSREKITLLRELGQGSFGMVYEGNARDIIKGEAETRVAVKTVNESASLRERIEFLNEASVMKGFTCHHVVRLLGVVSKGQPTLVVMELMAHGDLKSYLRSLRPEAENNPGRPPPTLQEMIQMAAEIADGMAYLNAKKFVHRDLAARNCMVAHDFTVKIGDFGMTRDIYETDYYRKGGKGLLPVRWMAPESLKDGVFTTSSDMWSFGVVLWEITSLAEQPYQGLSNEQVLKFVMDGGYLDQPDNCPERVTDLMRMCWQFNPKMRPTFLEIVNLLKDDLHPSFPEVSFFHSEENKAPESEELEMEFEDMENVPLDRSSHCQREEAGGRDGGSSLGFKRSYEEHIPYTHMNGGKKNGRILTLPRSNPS

- Kd: 0.3 nM
Substance: insulin (from UniProt P01308)
